Measurements published in EP4745153A1, “GLP-1, GIP AND GCG RECEPTOR […] USE THEREOF” (Jiangsu Hengrui Pharmaceuticals Co., Ltd., priority 2023, dated 2025).
Starred links: 1 amine or outer side, 2 acyl side, 3 side chain; linkers in the order of their positions; H or OH if unused. Non-standard residues stand in square brackets, D forms with d. Groups on a side chain read outwards from the residue. No end group written: not given here. *: point of attachment. C20 diacid = O=C(O)CCCCCCCCCCCCCCCCCCC(=O)*; C17 diacid = O=C(O)CCCCCCCCCCCCCCCC(=O)*; γGlu = O=C(O)[C@H](CCC(=O)[*:2])N[*:1]; αMeK = C[C@](N)(CCCCN)C(=O)O; Ac4c = NC1(C(=O)O)CCC1; AEEA = NCCOCCOCC(=O)O; Ac3c = NC1(C(=O)O)CC1; Aib = CC(C)(N)C(=O)O

T1: human glucose-dependent insulinotropic polypeptide receptor (human, UniProt P48546 22-466)
T1 sequence (looked up): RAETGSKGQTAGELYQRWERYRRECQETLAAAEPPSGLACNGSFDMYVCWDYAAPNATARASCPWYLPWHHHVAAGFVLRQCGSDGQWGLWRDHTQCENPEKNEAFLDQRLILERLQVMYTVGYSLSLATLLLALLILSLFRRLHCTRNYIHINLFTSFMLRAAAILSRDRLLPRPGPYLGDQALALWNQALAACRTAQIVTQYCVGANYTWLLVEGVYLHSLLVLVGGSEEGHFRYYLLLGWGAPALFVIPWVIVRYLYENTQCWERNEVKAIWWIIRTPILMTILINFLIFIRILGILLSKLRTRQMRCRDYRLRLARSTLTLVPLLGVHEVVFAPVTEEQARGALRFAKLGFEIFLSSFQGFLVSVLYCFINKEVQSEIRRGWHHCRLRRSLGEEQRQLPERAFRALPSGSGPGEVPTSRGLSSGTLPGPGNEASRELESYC

B1: Compound No. 0117 (peptide)
peptide: H[Aib]HGTFTSDYS[αMeK]LLEK([AEEA-AEEA-γGlu-C20 diacid])QAAQEFVEWLLAGGPSSGAPPPS-NH2
modifications: N-terminus assumed
SMILES: CC(C)C[C@H](NC(=O)[C@H](CC(C)C)NC(=O)[C@H](Cc1c[nH]c2ccccc12)NC(=O)[C@H](CCC(=O)O)NC(=O)[C@@H](NC(=O)[C@H](Cc1ccccc1)NC(=O)[C@H](CCC(=O)O)NC(=O)[C@H](CCC(N)=O)NC(=O)[C@H](C)NC(=O)[C@H](C)NC(=O)[C@H](CCC(N)=O)NC(=O)[C@H](CCCCNC(=O)COCCOCCNC(=O)COCCOCCNC(=O)CC[C@H](NC(=O)CCCCCCCCCCCCCCCCCCC(=O)O)C(=O)O)NC(=O)[C@H](CCC(=O)O)NC(=O)[C@H](CC(C)C)NC(=O)[C@H](CC(C)C)NC(=O)[C@](C)(CCCCN)NC(=O)[C@H](CO)NC(=O)[C@H](Cc1ccc(O)cc1)NC(=O)[C@H](CC(=O)O)NC(=O)[C@H](CO)NC(=O)[C@@H](NC(=O)[C@H](Cc1ccccc1)NC(=O)[C@@H](NC(=O)CNC(=O)[C@H](Cc1c[nH]cn1)NC(=O)C(C)(C)NC(=O)[C@@H](N)Cc1c[nH]cn1)[C@@H](C)O)[C@@H](C)O)C(C)C)C(=O)N[C@@H](C)C(=O)NCC(=O)NCC(=O)N1CCC[C@H]1C(=O)N[C@@H](CO)C(=O)N[C@@H](CO)C(=O)NCC(=O)N[C@@H](C)C(=O)N1CCC[C@H]1C(=O)N1CCC[C@H]1C(=O)N1CCC[C@H]1C(=O)N[C@@H](CO)C(N)=O
B2: Compound No. 0114 (peptide)
peptide: Y[Aib]QGTFTSDYS[αMeK]LLEK([AEEA-AEEA-γGlu-C20 diacid])KAAQEFVEWLLAGGPSSGAPPPS-NH2
modifications: N-terminus assumed
SMILES: CC(C)C[C@H](NC(=O)[C@H](CC(C)C)NC(=O)[C@H](Cc1c[nH]c2ccccc12)NC(=O)[C@H](CCC(=O)O)NC(=O)[C@@H](NC(=O)[C@H](Cc1ccccc1)NC(=O)[C@H](CCC(=O)O)NC(=O)[C@H](CCC(N)=O)NC(=O)[C@H](C)NC(=O)[C@H](C)NC(=O)[C@H](CCCCN)NC(=O)[C@H](CCCCNC(=O)COCCOCCNC(=O)COCCOCCNC(=O)CC[C@H](NC(=O)CCCCCCCCCCCCCCCCCCC(=O)O)C(=O)O)NC(=O)[C@H](CCC(=O)O)NC(=O)[C@H](CC(C)C)NC(=O)[C@H](CC(C)C)NC(=O)[C@](C)(CCCCN)NC(=O)[C@H](CO)NC(=O)[C@H](Cc1ccc(O)cc1)NC(=O)[C@H](CC(=O)O)NC(=O)[C@H](CO)NC(=O)[C@@H](NC(=O)[C@H](Cc1ccccc1)NC(=O)[C@@H](NC(=O)CNC(=O)[C@H](CCC(N)=O)NC(=O)C(C)(C)NC(=O)[C@@H](N)Cc1ccc(O)cc1)[C@@H](C)O)[C@@H](C)O)C(C)C)C(=O)N[C@@H](C)C(=O)NCC(=O)NCC(=O)N1CCC[C@H]1C(=O)N[C@@H](CO)C(=O)N[C@@H](CO)C(=O)NCC(=O)N[C@@H](C)C(=O)N1CCC[C@H]1C(=O)N1CCC[C@H]1C(=O)N1CCC[C@H]1C(=O)N[C@@H](CO)C(N)=O
B3: Compound No. 0118 (peptide)
peptide: H[Aib]HGTFTSDYS[αMeK]LLEK([AEEA-AEEA-γGlu-C17 diacid])IAAQEFVEWLLAGGPSSGAPPPS-NH2
modifications: N-terminus assumed
SMILES: CC[C@H](C)[C@H](NC(=O)[C@H](CCCCNC(=O)COCCOCCNC(=O)COCCOCCNC(=O)CC[C@H](NC(=O)CCCCCCCCCCCCCCCC(=O)O)C(=O)O)NC(=O)[C@H](CCC(=O)O)NC(=O)[C@H](CC(C)C)NC(=O)[C@H](CC(C)C)NC(=O)[C@](C)(CCCCN)NC(=O)[C@H](CO)NC(=O)[C@H](Cc1ccc(O)cc1)NC(=O)[C@H](CC(=O)O)NC(=O)[C@H](CO)NC(=O)[C@@H](NC(=O)[C@H](Cc1ccccc1)NC(=O)[C@@H](NC(=O)CNC(=O)[C@H](Cc1c[nH]cn1)NC(=O)C(C)(C)NC(=O)[C@@H](N)Cc1c[nH]cn1)[C@@H](C)O)[C@@H](C)O)C(=O)N[C@@H](C)C(=O)N[C@@H](C)C(=O)N[C@@H](CCC(N)=O)C(=O)N[C@@H](CCC(=O)O)C(=O)N[C@@H](Cc1ccccc1)C(=O)N[C@H](C(=O)N[C@@H](CCC(=O)O)C(=O)N[C@@H](Cc1c[nH]c2ccccc12)C(=O)N[C@@H](CC(C)C)C(=O)N[C@@H](CC(C)C)C(=O)N[C@@H](C)C(=O)NCC(=O)NCC(=O)N1CCC[C@H]1C(=O)N[C@@H](CO)C(=O)N[C@@H](CO)C(=O)NCC(=O)N[C@@H](C)C(=O)N1CCC[C@H]1C(=O)N1CCC[C@H]1C(=O)N1CCC[C@H]1C(=O)N[C@@H](CO)C(N)=O)C(C)C
B4: Compound No. 0145 (peptide)
peptide: H[Aib]HGTFTSDLSILLEK([AEEA-AEEA-γGlu-C20 diacid])QAA[Ac4c]EFVEWLLA[dE]GPSSGAPPPS-NH2
modifications: N-terminus assumed
SMILES: CC[C@H](C)[C@H](NC(=O)[C@H](CO)NC(=O)[C@H](CC(C)C)NC(=O)[C@H](CC(=O)O)NC(=O)[C@H](CO)NC(=O)[C@@H](NC(=O)[C@H](Cc1ccccc1)NC(=O)[C@@H](NC(=O)CNC(=O)[C@H](Cc1c[nH]cn1)NC(=O)C(C)(C)NC(=O)[C@@H](N)Cc1c[nH]cn1)[C@@H](C)O)[C@@H](C)O)C(=O)N[C@@H](CC(C)C)C(=O)N[C@@H](CC(C)C)C(=O)N[C@@H](CCC(=O)O)C(=O)N[C@@H](CCCCNC(=O)COCCOCCNC(=O)COCCOCCNC(=O)CC[C@H](NC(=O)CCCCCCCCCCCCCCCCCCC(=O)O)C(=O)O)C(=O)N[C@@H](CCC(N)=O)C(=O)N[C@@H](C)C(=O)N[C@@H](C)C(=O)NC1(C(=O)N[C@@H](CCC(=O)O)C(=O)N[C@@H](Cc2ccccc2)C(=O)N[C@H](C(=O)N[C@@H](CCC(=O)O)C(=O)N[C@@H](Cc2c[nH]c3ccccc23)C(=O)N[C@@H](CC(C)C)C(=O)N[C@@H](CC(C)C)C(=O)N[C@@H](C)C(=O)N[C@H](CCC(=O)O)C(=O)NCC(=O)N2CCC[C@H]2C(=O)N[C@@H](CO)C(=O)N[C@@H](CO)C(=O)NCC(=O)N[C@@H](C)C(=O)N2CCC[C@H]2C(=O)N2CCC[C@H]2C(=O)N2CCC[C@H]2C(=O)N[C@@H](CO)C(N)=O)C(C)C)CCC1
B5: Compound No. 0147 (peptide)
peptide: H[Aib]HGTFTSDLSILLEK([AEEA-AEEA-γGlu-C20 diacid])KAA[Ac4c]EFVEWLLA[dE]GPSSGAPPPS-NH2
modifications: N-terminus assumed
SMILES: CC[C@H](C)[C@H](NC(=O)[C@H](CO)NC(=O)[C@H](CC(C)C)NC(=O)[C@H](CC(=O)O)NC(=O)[C@H](CO)NC(=O)[C@@H](NC(=O)[C@H](Cc1ccccc1)NC(=O)[C@@H](NC(=O)CNC(=O)[C@H](Cc1c[nH]cn1)NC(=O)C(C)(C)NC(=O)[C@@H](N)Cc1c[nH]cn1)[C@@H](C)O)[C@@H](C)O)C(=O)N[C@@H](CC(C)C)C(=O)N[C@@H](CC(C)C)C(=O)N[C@@H](CCC(=O)O)C(=O)N[C@@H](CCCCNC(=O)COCCOCCNC(=O)COCCOCCNC(=O)CC[C@H](NC(=O)CCCCCCCCCCCCCCCCCCC(=O)O)C(=O)O)C(=O)N[C@@H](CCCCN)C(=O)N[C@@H](C)C(=O)N[C@@H](C)C(=O)NC1(C(=O)N[C@@H](CCC(=O)O)C(=O)N[C@@H](Cc2ccccc2)C(=O)N[C@H](C(=O)N[C@@H](CCC(=O)O)C(=O)N[C@@H](Cc2c[nH]c3ccccc23)C(=O)N[C@@H](CC(C)C)C(=O)N[C@@H](CC(C)C)C(=O)N[C@@H](C)C(=O)N[C@H](CCC(=O)O)C(=O)NCC(=O)N2CCC[C@H]2C(=O)N[C@@H](CO)C(=O)N[C@@H](CO)C(=O)NCC(=O)N[C@@H](C)C(=O)N2CCC[C@H]2C(=O)N2CCC[C@H]2C(=O)N2CCC[C@H]2C(=O)N[C@@H](CO)C(N)=O)C(C)C)CCC1
B6: Compound No. 0146 (peptide)
peptide: H[Aib]HGTFTSDLSILLEK([AEEA-AEEA-γGlu-C20 diacid])KAA[Ac3c]EFVEWLLA[dE]GPSSGAPPPS-NH2
modifications: N-terminus assumed
SMILES: CC[C@H](C)[C@H](NC(=O)[C@H](CO)NC(=O)[C@H](CC(C)C)NC(=O)[C@H](CC(=O)O)NC(=O)[C@H](CO)NC(=O)[C@@H](NC(=O)[C@H](Cc1ccccc1)NC(=O)[C@@H](NC(=O)CNC(=O)[C@H](Cc1c[nH]cn1)NC(=O)C(C)(C)NC(=O)[C@@H](N)Cc1c[nH]cn1)[C@@H](C)O)[C@@H](C)O)C(=O)N[C@@H](CC(C)C)C(=O)N[C@@H](CC(C)C)C(=O)N[C@@H](CCC(=O)O)C(=O)N[C@@H](CCCCNC(=O)COCCOCCNC(=O)COCCOCCNC(=O)CC[C@H](NC(=O)CCCCCCCCCCCCCCCCCCC(=O)O)C(=O)O)C(=O)N[C@@H](CCCCN)C(=O)N[C@@H](C)C(=O)N[C@@H](C)C(=O)NC1(C(=O)N[C@@H](CCC(=O)O)C(=O)N[C@@H](Cc2ccccc2)C(=O)N[C@H](C(=O)N[C@@H](CCC(=O)O)C(=O)N[C@@H](Cc2c[nH]c3ccccc23)C(=O)N[C@@H](CC(C)C)C(=O)N[C@@H](CC(C)C)C(=O)N[C@@H](C)C(=O)N[C@H](CCC(=O)O)C(=O)NCC(=O)N2CCC[C@H]2C(=O)N[C@@H](CO)C(=O)N[C@@H](CO)C(=O)NCC(=O)N[C@@H](C)C(=O)N2CCC[C@H]2C(=O)N2CCC[C@H]2C(=O)N2CCC[C@H]2C(=O)N[C@@H](CO)C(N)=O)C(C)C)CC1

The binders below were run against T1, human glucose-dependent insulinotropic … (assay: cell-based or functional assay).

| Binder | Activity against human GIPR (EC50 nM) [nM] |
| --- | --- |
| B1 | 0.003 |
| B2 | 0.01 |
| B3 | 0.004 |

The binders below were run against human glucagon receptor (human, UniProt P47871 26-477) (assay: cell-based or functional assay).
human glucagon receptor, sequence (P47871 26-477): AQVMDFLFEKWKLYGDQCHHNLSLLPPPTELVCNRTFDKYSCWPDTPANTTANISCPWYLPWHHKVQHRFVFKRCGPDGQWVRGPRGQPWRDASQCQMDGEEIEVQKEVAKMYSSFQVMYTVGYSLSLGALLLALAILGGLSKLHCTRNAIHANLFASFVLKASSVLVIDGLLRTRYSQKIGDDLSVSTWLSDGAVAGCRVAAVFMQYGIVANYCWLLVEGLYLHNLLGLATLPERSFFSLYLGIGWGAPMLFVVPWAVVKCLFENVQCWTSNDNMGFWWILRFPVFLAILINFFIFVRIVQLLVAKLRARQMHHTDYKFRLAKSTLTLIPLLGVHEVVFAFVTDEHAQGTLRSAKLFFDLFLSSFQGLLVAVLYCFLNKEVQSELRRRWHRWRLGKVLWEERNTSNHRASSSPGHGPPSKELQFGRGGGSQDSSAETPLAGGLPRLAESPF

| Binder | Activity against human GCGR (EC50 nM) [nM] |
| --- | --- |
| B4 | 0.143 |
| B5 | 0.041 |
| B6 | 0.146 |

Target: T1, human glucose-dependent insulinotropic …
Assay: cell-based or functional assay
Remark: another data set of the same source

| Binder | Activity against human GIPR (EC50 nM) [nM] |
| --- | --- |
| B4 | 0.003 |
| B5 | 0.005 |
| B6 | 0.009 |

The binders below were run against human glucagon-like peptide-1 receptor (human, UniProt P43220 24-463) (assay: cell-based or functional assay).

| Binder | Activity against human GLP-1R (EC50 nM) [nM] |
| --- | --- |
| B4 | 0.057 |
| B5 | 0.035 |
| B6 | 0.033 |
